Test results as given in US20110085986A1, “Diagnosis and treatment of epithelial cancers using labeled/conjugated progastrin peptides” (priority 2009, published 2011).
Values belong to the molecule of their own block, whether it stands above or below them. Ends that are not written are not given here. Peptide text beside a SMILES is read from it. * marks the point of attachment. FITC = O=C1OC2(c3ccc(O)cc3Oc3cc(O)ccc32)c2ccc(NC(=S)*)cc21

How the values were obtained:
colon cancer xenograft = test: Homing of FITC-PG26 to Anx A2 over-expressing tumors growing as xenografts in nude mice; type: in vivo
Description: FIGS. 8A-E depict 10-100 μg of FITC-PG-26 peptide was dissolved in 100 μl of saline was used to detect the tumor in nude mice. The images were captured in live mice after 1-60 minutes, with injection on the tumor site (FIG. 8A) or through tail vein (FIGS. 8B-D). In FIG. 8B, the localization of tumor cells are marked with arrows detected after 5 minutes post tail vein injection.
For data presented in FIGS. 2-4, 5A-5B and 6A-6E, the full length 80 amino acid rhPG was used (SEQ ID NO: 2), which was visualized by staining with fluorescently labeled primary or secondary antibodies. […] Strong peri-nuclear co-localization of FITC-PG26 with Anx A2 was measured within 15 min of labeling in a chase experiment (FIG. 7). […]
The 26 amino acid PG peptide (PG26), labeled with FITC at the N-terminal end, specifically homed to the site of a colon cancer xenograft, growing either under the skin or growing as a metastatic lesion in the liver. […] Even small tumor lesions were detected with FITC-PG26 after […] of tail vein injection (FIG. 8B). FITC-control peptide was not detected after 30 min of injecting into the tail vein (FIG. 8E), confirming the specificity of FITC-PG26 peptide for homing to tumors in situ.

Anx A2 [1] = biological target: T1, Anx A2 (Rattus norvegicus, UniProt Q07936); details: Anx A2 prepared from cancer cells/tumor membranes; cited from earlier work
T1 construct: the 36 kDa Anx A2 protein, prepared from cancer cells/tumor membranes; endogenous in cells

CCK1R = test: Affinity of amidated gastrins for CCK1R; type: binding
[2] = Biological activity of PG26
Text: For data presented in FIGS. 2-4, 5A-5B and 6A-6E, the full length 80 amino acid rhPG was used (SEQ ID NO: 2), which was visualized by staining with fluorescently labeled primary or secondary antibodies. However, in order to examine the feasibility of using PG peptides for diagnostic and treatment purposes, synthesized FITC labeled PG fragments (PG26, SEQ ID NO 1: […]) conjugated with either radio- or fluorescently labeled imaging reagents (for diagnostic purposes), or with cytotoxic payloads (for therapeutic purposes) was studied. […] Endocytotic internalization of FITC-PG26 in PG responsive immortalized kidney embryonic cell line, HEK-293, was examined. Strong peri-nuclear co-localization of FITC-PG26 with Anx A2 was measured within 15 min of labeling in a chase experiment (FIG. 7). […] The homing potential of FITC-PG26 to Anx A2 over-expressing tumors, growing as xenografts in nude mice, was confirmed, as shown in FIGS. 8A-8E.

Anx A2 [3] = biological target: Anx A2 (Homo sapiens, UniProt P07355); test: In vitro binding assay and co-IP of rhPG and ANX-II; details: in vitro binding assay, FIG. 3
Text: Lane 1 is rhPG; lane 2 is ANX-II; lanes 3 and 4 are rhPG and ANX-II; lane 3 is IP with anti-PG (aPG); lane 4 is IP with anti-ANX-II (aANX-II). All the samples were processed for WB with both aPG and ANX-II.
(§1) Adenoma and adenocarcinomas tissue sections (from ovarian and colorectal cancers of patients) were positive for Anx A2 expression, while normal tissues were negative (FIGS. 4, 5A-5B). Immortalized intestinal epithelial cell line (IEC-18) are used, which responds to the growth and anti-apoptotic effects of PG peptides (9), for further investigating the biology of interaction of PG with Anx A2. Intra-cellular translocation of labeled PG was examined in IEC-18 cells. […] Using fluoroscense assisted sorting with labeled anti-Anx A2-Abs, presence of extracellular Anx A2 was confirmed on IEC-18 cells (FIG. 6B).

[4] = tested on: immortalized cells (IEC, HEK-293) and cancer cell lines (from ovaries/colons); test: Co-localization of PG with Anx A2 in PG-responsive cells; type: cell-based; details: cells responsive to growth effects of PG peptides
Text: as §1

IEC-18 cells = test: Intra-cellular translocation of PG in IEC-18 cells (confocal microscopy, pull down/WB, Anx A2 siRNA); type: cell-based
Description: FIGS. 6A-6E depict the binding of PG with ANXII. FIG. 6A depicts immuno-colocalization of ANXII/PG in IEC cells, incubated with PG. E. IEC-18 cells were seeded, on sterile glass cover slips. Following overnight culture cells were incubated with PG (1 nM) from 0-15 min, and washed 3× with chilled PBS. Cells were fixed in acetone:methanol for 20 min at −20° C., and incubated with anti-PG or anti-ANXII-Abs, followed by fluorescence labeling with second Abs. Images were captured by confocal microscopy at 60×. Insets represent computer assisted enlarged images. Arrows depict co-localization on membranes. […] Cells in culture were detached with liberase to make single cell suspensions and incubated with either non-immune IgG or anti-ANXII-Ab for 2 hours at room temperature, washed with chilled PBS followed by incubation with FITC-second-Ab for 1 hours at room temperature. FIG. 6C depicts IEC-18 cells in culture treated with PG for 0-15 min except for Lamp1 (treated for 0-30 min) at 37° C. and washed with chilled PBS 3×. Cells were processed for pull down with anti-PG-Ab and processed for WB analysis for either EEA1/ANXII/PG/Lamp1. […] The inset portion of the co-localization staining is also shown.
as §1
Since Anx A2 lacks transmembrane domains, mechanisms mediating translocation of Anx A2/PG from outer cell membranes towards intracellular compartments remains unknown. Anx A2 also binds transmembrane proteins such as CD44, which are over-expressed in cancer cells. Thus the tumor specific expression of CD44-like transmembrane proteins offers an additional level of cancer-specific regulation, allowing intra-cellular translocation of PG-Anx A2 only in tumor cells. […] Co-localization of PG/Anx A2 with the early endosomal marker (EEA1) was examined. Cellular lysates from IEC-18 cells, treated with PG for 0, 5 and 15 min, were pulled down with anti-PG Abs and processed for WB analysis for EEA1, Lamp1 (lysomal marker), Anx A2 and PG (FIG. 6C). Possible in situ co-localization of EEA1 with PG was also examined after 15 min of PG stimulation by confocal microscopy (FIG. 6D). […]

T1 sequence (Q07936 whole entry): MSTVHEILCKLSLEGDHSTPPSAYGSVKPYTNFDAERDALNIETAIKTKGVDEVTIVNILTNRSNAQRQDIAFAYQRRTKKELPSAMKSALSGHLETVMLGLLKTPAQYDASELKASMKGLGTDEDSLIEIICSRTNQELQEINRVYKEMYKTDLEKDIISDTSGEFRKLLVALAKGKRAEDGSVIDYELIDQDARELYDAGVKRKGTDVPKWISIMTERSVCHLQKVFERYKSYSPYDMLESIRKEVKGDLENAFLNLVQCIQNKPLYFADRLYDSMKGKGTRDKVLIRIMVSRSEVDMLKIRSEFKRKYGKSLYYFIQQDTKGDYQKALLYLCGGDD
Chain of Anx A2 (Homo sapiens, UniProt P07355) (P07355 whole entry, species assumed): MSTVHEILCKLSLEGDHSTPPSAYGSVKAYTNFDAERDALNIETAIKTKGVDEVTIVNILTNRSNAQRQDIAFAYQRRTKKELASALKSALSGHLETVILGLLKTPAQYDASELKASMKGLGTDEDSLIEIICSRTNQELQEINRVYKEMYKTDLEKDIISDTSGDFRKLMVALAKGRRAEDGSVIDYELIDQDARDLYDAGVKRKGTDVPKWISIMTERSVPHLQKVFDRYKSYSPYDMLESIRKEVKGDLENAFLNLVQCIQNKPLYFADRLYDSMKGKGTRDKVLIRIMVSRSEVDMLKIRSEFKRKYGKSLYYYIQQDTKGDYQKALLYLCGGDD

Molecule: CSCC[C@H](NC(=O)[C@H](Cc1c[nH]c2ccccc12)NC(=O)CNC(=O)[C@H](Cc1ccc(O)cc1)NC(=O)[C@H](C)NC(=O)[C@H](CCC(=O)O)NC(=O)[C@H](CCC(=O)O)NC(=O)[C@H](CCC(=O)O)NC(=O)[C@H](CCC(=O)O)NC(=O)[C@H](CCC(=O)O)NC(=O)[C@H](CC(C)C)NC(=O)[C@H](Cc1c[nH]c2ccccc12)NC(=O)[C@@H]1CCCN1C(=O)CNC(=O)[C@H](CCC(N)=O)NC(=S)Nc1ccc2c(c1)C(=O)OC21c2ccc(O)cc2Oc2cc(O)ccc21)C(=O)N[C@@H](CC(=O)O)C(=O)N[C@@H](Cc1ccccc1)C(=O)NCC(=O)N[C@@H](CCCNC(=N)N)C(=O)N[C@@H](CCCNC(=N)N)C(=O)N[C@@H](CO)C(=O)N[C@@H](C)C(=O)N[C@@H](CCC(=O)O)C(=O)N[C@@H](CC(=O)O)C(=O)N[C@@H](CCC(=O)O)C(=O)N[C@@H](CC(N)=O)C(=O)O [FITC-PG26] ({FITC}-QGPWLEEEEEAYGWMDFGRRSAEDEN-OH; N-terminus and C-terminus assumed)
- retention in the tumor (colon cancer xenograft; i.v. injection through the tail vein, FIG. 8C): ~60 min
- retention of fluorescence in tumor (colon cancer xenograft; injected intra-tumorally, FIG. 8A): > 20 min

Molecule: CCK8: cholecystokinin CCK8 [reference compound]
- Relative binding affinity (RBA) for the 36 kDa Anx A2 protein, rank order (Anx A2 [1]): no affinity

Molecule: G17: amidated gastrin
- affinity for CCK1R (CCK1R): much higher affinity

Molecule: G34: amidated gastrin (QLGPQGPPHLVADPSKKQGPWLEEEEEAYGWMDF-NH2; ends and bridges not checked; UniProt P01350 59-92, looked up)
- affinity for CCK1R (CCK1R): much higher affinity

Molecule: QGPWLEEEEEAYGWMDFGRRSAEDEN (homing progastrin peptide specifically binding annexin2) [PG26, 26 amino acid PG peptide fragment]
- biological activity [2]: biologically active

- binding of Anx A2 and rhPG (Anx A2 [3]): Direct binding
B1: PG: full length 80 amino acid rhPG (SEQ ID NO: 2) (protein)
chain: SWKPRSQQPDAPLGTGANRDLELPWLEQQGPASHHRRQLGPQGPPHLVADPSKKQGPWLEEEEEAYGWMDFGRRSAEDEN
modifications: recombinant human progastrin
- co-localization of PG with Anx A2 [4]: strong co-localization
- PG binding/uptake (IEC-18 cells; IEC18 cells treated with specific siRNA against Anx A2, FIG. 6E): completely negative
- localization of PG/Anx A2 after addition of PG (IEC-18 cells; IEC-18 cells, FIG. 6A): initial co-localization of PG with Anx A2 on the cellular membranes, followed by rapid intracellular localization
- time to translocation of Anx A2 and PG into early endosomes (IEC-18 cells; after PG stimulation, IEC-18 cells): ≤ 5 min
- increase in co-IP of Lamp1 with PG (IEC-18 cells; later time points, FIG. 6C): ~5 fold
- Relative binding affinity (RBA) for the 36 kDa Anx A2 protein, rank order (Anx A2 [1]): PG>G-Gly>G17

B2: G-Gly: glycine-extended gastrin, processing intermediate of progastrin (peptide)
peptide: SWKPRSQQPDAPLGTGANRDLELPWLEQQGPASHHRRQLGPQGPPHLVADPSKKQGPWLEEEEEAYGWMDFGRRSAEDEN
- Relative binding affinity (RBA) for the 36 kDa Anx A2 protein, rank order (Anx A2 [1]): PG>G-Gly>G17
